± gives the uncertainty stated by the source.
Experiment: protein stability index of a GFP-peptide fusion (yeast GPS) (PSI 1-4); higher = more stable; sorted into four equal gates, so the index is relative within each strain
In short: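 Tiled 17-residue yeast protein peptides were fused downstream of GFP in a plasmid that also expresses Cherry, and the pooled library was carried in yeast. Mid-log cultures in leucine-free medium were sorted into four equal gates by GFP/Cherry fluorescence ratio, and plasmids from each gate were PCR-amplified and Illumina-sequenced, with reads assigned to strains by barcodes. The protein stability index for each peptide was each gate's read frequency times its gate number, summed.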

## FKKDFEVNISSLDAREA [RPC40]
doa10∆
  protein stability index: 2.07 ± 0.059
pdr5∆
  protein stability index: 1.58 ± 0.067
san1∆
  protein stability index: 1.98 ± 0.1
ubr1∆
  protein stability index: 2.16 ± 0.092

## EGKYIVDVAKDINVKDL [RPT6]
doa10∆
  protein stability index: 3.44 ± 0.12
pdr5∆
  protein stability index: 3.21 ± 0.11
san1∆
  protein stability index: 2.67 ± 0.14
ubr1∆
  protein stability index: 3.24 ± 0.093

## LYPDSSSFKKNLLKFIT [RPN3]
doa10∆
  protein stability index: 1.19 ± 0.075
pdr5∆
  protein stability index: 1.26 ± 0.069
san1∆
  protein stability index: 1.05 ± 0.13
ubr1∆
  protein stability index: 1.25 ± 0.18

## SVNPAMLPGSSNGGGKV [RPO31]
doa10∆
  protein stability index: 2.98 ± 0.071
pdr5∆
  protein stability index: 3.36 ± 0.12
san1∆
  protein stability index: 3.07 ± 0.08
ubr1∆
  protein stability index: 3.08 ± 0.06

## TAFKSSPFGGSSHAKGI [RPS23A]
doa10∆
  protein stability index: 3.02 ± 0.067
pdr5∆
  protein stability index: 2.61 ± 0.053
san1∆
  protein stability index: 3.02 ± 0.048
ubr1∆
  protein stability index: 2.29 ± 0.04

## RGTIPLLERYIGNLITR [PRP8]
doa10∆
  protein stability index: 1.52 ± 0.055
pdr5∆
  protein stability index: 1.55 ± 0.045
san1∆
  protein stability index: 1.48 ± 0.08
ubr1∆
  protein stability index: 1.6 ± 0.039

## VMKQVETLVLDEADKMI [PRP28]
san1∆
  protein stability index: 3.42 ± 0.13
ubr1∆
  protein stability index: 3.04 ± 0.12

## IESDSILNLLNILTTHL [ECM29]
doa10∆
  protein stability index: 2.39 ± 0.043
pdr5∆
  protein stability index: 2.02 ± 0.046
san1∆
  protein stability index: 1.75 ± 0.049
ubr1∆
  protein stability index: 2.32 ± 0.049

## VKSKIQDKEGIPPDQQR [RPS31]
doa10∆
  protein stability index: 3.08 ± 0.076
pdr5∆
  protein stability index: 3.48 ± 0.075
san1∆
  protein stability index: 3.41 ± 0.051
ubr1∆
  protein stability index: 3.44 ± 0.061

## QLKNVQLDSYLVNGFSQ [MED2]
doa10∆
  protein stability index: 2.49 ± 0.062
pdr5∆
  protein stability index: 2.68 ± 0.088
san1∆
  protein stability index: 2.24 ± 0.11
ubr1∆
  protein stability index: 2.49 ± 0.042

## TFEKHDRVEDICERIFE [RRI2]
doa10∆
  protein stability index: 2.68 ± 0.12
pdr5∆
  protein stability index: 3.05 ± 0.16
san1∆
  protein stability index: 3.15 ± 0.23

## AVGNLGNAIEVTEDGSI [RPL22B]
doa10∆
  protein stability index: 1.16 ± 0.13
pdr5∆
  protein stability index: 1.45 ± 0.098
san1∆
  protein stability index: 1.24 ± 0.19
ubr1∆
  protein stability index: 1.27 ± 0.05

## NGDNSTTTNTDQNNATM [SNF12]
doa10∆
  protein stability index: 2.4 ± 0.069
pdr5∆
  protein stability index: 2.2 ± 0.069
san1∆
  protein stability index: 2.52 ± 0.097
ubr1∆
  protein stability index: 1.99 ± 0.051

## ESNDRINKIVEILTNQQ [YGR119C/NUP57]
pdr5∆
  protein stability index: 2.77 ± 0.23
san1∆
  protein stability index: 2.57 ± 0.13
ubr1∆
  protein stability index: 2.23 ± 0.085

## VPEMIGSVVGIYNGKAF [RPS15]
doa10∆
  protein stability index: 1.27 ± 0.15
pdr5∆
  protein stability index: 1.34 ± 0.074
san1∆
  protein stability index: 1.66 ± 0.24
ubr1∆
  protein stability index: 1.41 ± 0.072

## MASNEVLVLRGTLEGHN [ASC1]
doa10∆
  protein stability index: 3.06 ± 0.17
pdr5∆
  protein stability index: 2.22 ± 0.16
san1∆
  protein stability index: 3.24 ± 0.13
ubr1∆
  protein stability index: 3.16 ± 0.25

## RKALPKEPKKLLPNSKN [DSN1]
doa10∆
  protein stability index: 2.55 ± 0.063
pdr5∆
  protein stability index: 2.69 ± 0.071
san1∆
  protein stability index: 2.69 ± 0.084
ubr1∆
  protein stability index: 2.87 ± 0.05

## HARARGPRAVLTRQPTE [RET1]
doa10∆
  protein stability index: 3.28 ± 0.11
pdr5∆
  protein stability index: 3.31 ± 0.068
san1∆
  protein stability index: 3.08 ± 0.065
ubr1∆
  protein stability index: 3.26 ± 0.06

## DQGNGWLYVYETPNQDA [RPN6]
doa10∆
  protein stability index: 2.36 ± 0.061
pdr5∆
  protein stability index: 2.01 ± 0.051
san1∆
  protein stability index: 2.23 ± 0.067
ubr1∆
  protein stability index: 2.38 ± 0.037

## VQKQTRAGQRTRFKAVV [RPS2]
doa10∆
  protein stability index: 3.04 ± 0.12
pdr5∆
  protein stability index: 3.35 ± 0.14
san1∆
  protein stability index: 3.31 ± 0.15
ubr1∆
  protein stability index: 3.23 ± 0.088

## ETLVLSYFSPINSSNEA [YCG1]
doa10∆
  protein stability index: 2.67 ± 0.096
pdr5∆
  protein stability index: 1.55 ± 0.087
san1∆
  protein stability index: 1.25 ± 0.19
ubr1∆
  protein stability index: 2.13 ± 0.055

## YMDKAKQYDNRITKSNE [LRP1]
doa10∆
  protein stability index: 3.08 ± 0.063
pdr5∆
  protein stability index: 2.91 ± 0.056
san1∆
  protein stability index: 2.97 ± 0.057
ubr1∆
  protein stability index: 2.94 ± 0.074

## NSNSNQQSTDADEDDED [RPT1]
doa10∆
  protein stability index: 2.32 ± 0.095
pdr5∆
  protein stability index: 2.34 ± 0.093
san1∆
  protein stability index: 2.46 ± 0.091
ubr1∆
  protein stability index: 2.37 ± 0.061

## KNLSLLAEEVVDNIVNK [SRP68]
doa10∆
  protein stability index: 3.15 ± 0.092
pdr5∆
  protein stability index: 2.9 ± 0.13
san1∆
  protein stability index: 3.16 ± 0.066
ubr1∆
  protein stability index: 3.01 ± 0.089

## LAYENKITDKEDLLHYI [POP4]
doa10∆
  protein stability index: 3.35 ± 0.15
pdr5∆
  protein stability index: 3.31 ± 0.068
san1∆
  protein stability index: 3.2 ± 0.068
ubr1∆
  protein stability index: 3.24 ± 0.088

## VQELLKVLNEISKTTLT [RPN3]
doa10∆
  protein stability index: 3.1 ± 0.15
pdr5∆
  protein stability index: 3.29 ± 0.074
san1∆
  protein stability index: 3.17 ± 0.055
ubr1∆
  protein stability index: 3.39 ± 0.071

## NFPVRQWSIEIVLLDDE [TAF14]
doa10∆
  protein stability index: 1.57 ± 0.07
pdr5∆
  protein stability index: 1.5 ± 0.055
san1∆
  protein stability index: 2.37 ± 0.093
ubr1∆
  protein stability index: 2.19 ± 0.059

## STTNSDVSLLLQRDLFI [RGR1]
doa10∆
  protein stability index: 2.76 ± 0.093
pdr5∆
  protein stability index: 3.06 ± 0.1
san1∆
  protein stability index: 2.81 ± 0.067
ubr1∆
  protein stability index: 3.02 ± 0.077

## QYYLSVLNQQLPIESQF [BRR2]
doa10∆
  protein stability index: 2.28 ± 0.059
pdr5∆
  protein stability index: 2.66 ± 0.059
san1∆
  protein stability index: 2.65 ± 0.055
ubr1∆
  protein stability index: 2.42 ± 0.039

## ESMAYTAFQTQRTAQDR [YML031W/NDC1]
doa10∆
  protein stability index: 3.27 ± 0.076
pdr5∆
  protein stability index: 3.27 ± 0.099
san1∆
  protein stability index: 3.23 ± 0.067
ubr1∆
  protein stability index: 2.85 ± 0.16

## IFCIDLEVFHHFFKWIE [SRB8]
doa10∆
  protein stability index: 1.25 ± 0.092
pdr5∆
  protein stability index: 1.64 ± 0.16
san1∆
  protein stability index: 1.38 ± 0.14

## ASVEIVFHDPDHSMILP [SMC3]
doa10∆
  protein stability index: 2.26 ± 0.11
pdr5∆
  protein stability index: 2.54 ± 0.12
san1∆
  protein stability index: 2.98 ± 0.15
ubr1∆
  protein stability index: 2.65 ± 0.079

## SSFSLTFFPRCIIAVSC [POP1]
doa10∆
  protein stability index: 1.93 ± 0.029
pdr5∆
  protein stability index: 1.86 ± 0.035
san1∆
  protein stability index: 2.07 ± 0.054
ubr1∆
  protein stability index: 2.03 ± 0.037

## LNFKDDKKYKGLTTVWL [REC8]
doa10∆
  protein stability index: 2.71 ± 0.064
pdr5∆
  protein stability index: 2.77 ± 0.14
san1∆
  protein stability index: 2.64 ± 0.13
ubr1∆
  protein stability index: 2.69 ± 0.066

## GWKPLRYLDNLKQEIDR [SNU114]
ubr1∆
  protein stability index: 3.15 ± 0.13

## AARDNKKTRIIPRHLQL [HTA1]
doa10∆
  protein stability index: 3.04 ± 0.18
pdr5∆
  protein stability index: 3.38 ± 0.11
san1∆
  protein stability index: 3.37 ± 0.13
ubr1∆
  protein stability index: 3.15 ± 0.19

## KIIEDLRQKHEFLEDFD [SMC2]
doa10∆
  protein stability index: 2.96 ± 0.097
pdr5∆
  protein stability index: 2.54 ± 0.077
san1∆
  protein stability index: 2.6 ± 0.087
ubr1∆
  protein stability index: 2.94 ± 0.17

## CYPQFAERDSQGGFYKQ [UBP6]
doa10∆
  protein stability index: 3.31 ± 0.065
pdr5∆
  protein stability index: 3.28 ± 0.064
san1∆
  protein stability index: 3.12 ± 0.058
ubr1∆
  protein stability index: 3.21 ± 0.044

## EGSKSHPFGHALVAGIE [RPL27A]
doa10∆
  protein stability index: 2.73 ± 0.061
pdr5∆
  protein stability index: 2.83 ± 0.069
san1∆
  protein stability index: 2.59 ± 0.071
ubr1∆
  protein stability index: 2.76 ± 0.047

## LTKTTVNISAVDNTTEQ [YCG1]
doa10∆
  protein stability index: 3.25 ± 0.11
pdr5∆
  protein stability index: 3.29 ± 0.14
san1∆
  protein stability index: 2.88 ± 0.1
ubr1∆
  protein stability index: 3.24 ± 0.098

## GKILTIKQQQQQQQQQN [YML103C/NUP188]
doa10∆
  protein stability index: 2.77 ± 0.049
pdr5∆
  protein stability index: 3.13 ± 0.053
san1∆
  protein stability index: 3.12 ± 0.048
ubr1∆
  protein stability index: 2.96 ± 0.049

## QLAQIRQFLKANKTNLI [YML103C/NUP188]
doa10∆
  protein stability index: 2.65 ± 0.057
pdr5∆
  protein stability index: 2.81 ± 0.068
san1∆
  protein stability index: 2.86 ± 0.049
ubr1∆
  protein stability index: 2.93 ± 0.04

## SGDREVQRTMLELLNQL [RPT5]
doa10∆
  protein stability index: 3.28 ± 0.12
pdr5∆
  protein stability index: 2.73 ± 0.28
san1∆
  protein stability index: 3.12 ± 0.12
ubr1∆
  protein stability index: 3.21 ± 0.1

## LGINLVTADTVILFDSD [ISW2]
doa10∆
  protein stability index: 2.53 ± 0.1
pdr5∆
  protein stability index: 2.65 ± 0.086
san1∆
  protein stability index: 2.51 ± 0.16
ubr1∆
  protein stability index: 2.94 ± 0.06

## KQLEKRDYQRINKNSKI [POP4]
doa10∆
  protein stability index: 2.06 ± 0.067
pdr5∆
  protein stability index: 2.4 ± 0.068
san1∆
  protein stability index: 2.02 ± 0.11
ubr1∆
  protein stability index: 2.69 ± 0.11

## YGKLRNGMFCQVPSSLI [RRP4]
doa10∆
  protein stability index: 2.22 ± 0.066
pdr5∆
  protein stability index: 2 ± 0.1
san1∆
  protein stability index: 2.4 ± 0.09
ubr1∆
  protein stability index: 2 ± 0.072

## LPSPESLKTKLNSNIRA [SNF5]
doa10∆
  protein stability index: 1.52 ± 0.048
pdr5∆
  protein stability index: 1.71 ± 0.043
san1∆
  protein stability index: 2.15 ± 0.061
ubr1∆
  protein stability index: 2.1 ± 0.035

## FELFDNKTAHLSIPGKS [SNU114]
doa10∆
  protein stability index: 2.11 ± 0.04
pdr5∆
  protein stability index: 2.11 ± 0.055
san1∆
  protein stability index: 2.25 ± 0.058
ubr1∆
  protein stability index: 2.1 ± 0.031

## TLTKISMLFKTSQKMTS [MCD1]
doa10∆
  protein stability index: 1.92 ± 0.082
pdr5∆
  protein stability index: 2.83 ± 0.16
san1∆
  protein stability index: 2.45 ± 0.13
ubr1∆
  protein stability index: 3.53 ± 0.19

## PNLIEKMVAKGLNDLVE [BRR2]
doa10∆
  protein stability index: 2.51 ± 0.17
pdr5∆
  protein stability index: 2.82 ± 0.21
ubr1∆
  protein stability index: 2.99 ± 0.18

## ILYSFKLSGKLLKEEKI [YML103C/NUP188]
doa10∆
  protein stability index: 1.4 ± 0.059
pdr5∆
  protein stability index: 1.6 ± 0.063
san1∆
  protein stability index: 2.11 ± 0.1
ubr1∆
  protein stability index: 2.49 ± 0.1
